Measurements as given in PMC12884772, “Macrophagic Sclerostin Loop2‐ApoER2 Interaction Required by Sclerostin for Cardiovascular Protective Action” (Advanced Science, 2025).
Substitutions are numbered along the chain they refer to. In names and notes the source's numbering stands. One block for each molecule: values may come before it.

Experiments:
ApoER2 = target: T1, ApoER2 (Mus musculus, UniProt Q924X6); assay: Co‐immunoprecipitation of wild‐type/mutated sclerostin with ApoER2 in macrophages (RAW264.7); assay type: binding; settings: Figure 6E
T1 construct: FLAG; expressed in transfected cells; host or cells: RAW264.7
T1 sequence (Q924X6 29-996): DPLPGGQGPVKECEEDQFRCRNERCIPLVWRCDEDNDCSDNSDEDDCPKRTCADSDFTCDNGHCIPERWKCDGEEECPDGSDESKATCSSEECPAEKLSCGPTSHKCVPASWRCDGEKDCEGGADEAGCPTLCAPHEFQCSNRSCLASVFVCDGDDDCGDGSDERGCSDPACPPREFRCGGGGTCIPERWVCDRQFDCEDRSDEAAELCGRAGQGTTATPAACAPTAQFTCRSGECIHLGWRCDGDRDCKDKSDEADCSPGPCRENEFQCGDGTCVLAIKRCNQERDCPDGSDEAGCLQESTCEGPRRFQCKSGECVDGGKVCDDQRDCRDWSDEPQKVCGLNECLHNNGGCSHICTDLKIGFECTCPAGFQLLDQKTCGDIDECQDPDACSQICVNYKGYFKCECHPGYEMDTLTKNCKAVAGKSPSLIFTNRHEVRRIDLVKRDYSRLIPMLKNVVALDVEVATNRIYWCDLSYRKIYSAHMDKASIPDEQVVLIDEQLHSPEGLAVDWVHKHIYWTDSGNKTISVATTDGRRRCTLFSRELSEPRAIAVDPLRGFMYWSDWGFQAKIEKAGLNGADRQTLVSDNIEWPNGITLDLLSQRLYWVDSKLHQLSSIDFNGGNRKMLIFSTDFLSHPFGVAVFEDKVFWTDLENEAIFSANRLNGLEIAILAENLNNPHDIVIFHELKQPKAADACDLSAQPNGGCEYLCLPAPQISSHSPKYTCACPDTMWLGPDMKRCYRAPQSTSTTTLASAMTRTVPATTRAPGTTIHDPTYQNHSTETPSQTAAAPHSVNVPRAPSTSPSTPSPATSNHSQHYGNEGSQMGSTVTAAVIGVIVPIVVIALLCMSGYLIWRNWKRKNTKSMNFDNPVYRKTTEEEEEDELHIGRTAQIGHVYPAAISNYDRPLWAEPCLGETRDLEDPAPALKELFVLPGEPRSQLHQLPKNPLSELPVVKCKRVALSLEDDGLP
Experimental: The interaction of full‐length (FL)/truncated ApoER2 with full‐length (FL) /truncated sclerostin in macrophages (RAW264.7) were determined by pull‐down assay and Co‐IP assay. The binding affinity of ApoER2 to FL sclerostin and sclerostin loop2 were determined by biolayer interferometry (BLI) analysis. Moreover, the binding of sclerostin to ApoER2 on macrophages (RAW264.7) was examined by confocal microscopy.

sclerostin loop2 = sclerostin loop2 (Mus musculus, UniProt Q99P68); assay: Pull‐down assay of ApoER2 muteins with sclerostin loop2; assay type: binding; settings: Figure 6D
Experimental: The interaction residues within ApoER2 to sclerostin loop2 were determined in combination with pull‐down assay and BLI analysis. Based on the interaction residues within ApoER2 to sclerostin loop2, a series of Lrp8 mutations were developed. Based on the interaction residues within sclerostin loop2 to ApoER2, a series of sost mutations were developed.
Cell lysates were collected using RIPA Lysis and Extraction Buffer (Thermo Scientific, 89 901) supplemented with Protease Inhibitor Cocktail (CST, 5871) and centrifuged at 4000 rpm for 30 min at 4 °C, and replaced with binding buffer (PBS buffer, 20 mM imidazole, pH 8.0). After pretreatment with binding buffer three times, 20 µL Ni‐NTA Magnetic Agarose Beads were incubated with 6 µg His‐SOST and 6 µg His‐loop3 peptide, respectively, in binding buffer for 2 h at 4 °C with gentle rotation. The beads carrying His‐SOST and His‐loop3 peptide were then incubated with 500 µL cell lysate supernatant at 4 °C overnight with gentle rotation. To eliminate the influence of non‐specific binding between beads and cell lysate, 20 µL beads and 500 µL cell lysate were incubated under the same conditions. […]
The eluted liquid from pull‐down assay was then mixed with SDS‐PAGE loading buffer and boiled for 10 min at 95 °C to make samples. […] The ECL solution (BIO‐RAD, 1 705 061) was used to visualize detected proteins. […]

sclerostin loop2, sequence (Q99P68 107-132 limits assumed): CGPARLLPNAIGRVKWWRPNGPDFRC

- Interaction with ApoER2 by co‐IP (ApoER2): No interaction
B1: SOST^loop2m: sclerostin mutein with I94A, G95A, R96A, K98A, W99A, encoded by sost^loop2m (protein)
chain: QGWQAFRNDATEVIPGLGEYPEPPPENNQTMNRAENGGRPPHHPYDAKDVSEYSCRELHYTRFLTDGPCRSAKPVTELVCSGQCGPARLLPNAAAAVAAWRPNGPDFRCIPDRYRAQRVQLLCPGGAAPRSRKVRLVASCKCKRLTRFHNQSELKDFGPETARPQKGRKPRPGARGAKANQAELENAY

- Binding ability of sclerostin loop2 to ApoER2 mutein versus wild‐type ApoER2 (sclerostin loop2): dramatically weaker
B2: ApoER2‐M2: ApoER2 mutein P253A, T254A, G268A, W269A, R270A (protein, UniProt Q924X6 29-996, looked up, variant P253A T254A G268A W269A R270A)
Low-density lipoprotein …: T1 sequence (Q924X6 29-996) with P225A, T226A, G240A, W241A, R242A

- Binding ability of sclerostin loop2 to ApoER2 mutein versus wild‐type ApoER2 (sclerostin loop2): dramatically weaker
B3: ApoER2‐M8: ApoER2 mutein P253A, T254A, G268A, W269A, R270A, N311A, Q312A, E313A, encoded by Lrp8m (protein, UniProt Q924X6 29-996, looked up, variant P253A T254A G268A W269A R270A N311A Q312A E313A)
Low-density lipoprotein …: T1 sequence (Q924X6 29-996) with P225A, T226A, G240A, W241A, R242A, N283A, Q284A, E285A
